Measured values taken from patent US20260265393A1.
pKd: −log10 of the molar value.

Experiments:
[1] = target: CD27-mFc (Kangdai) (human) (UniProt P26842); assay: ELISA on coated CD27-mFc (1 ug/mL), AP anti-human Fc detection, absorption at 405/490 nm (Example 15.2)
[2] = target: CD27-mFc (Kangdai) (human) (UniProt P26842); assay: ELISA on coated CD27-mFc
[3] = target: human CD27 (transmembrane protein) on the cell membrane (human) (UniProt P26842); assay: flow cytometry on human PBMC, antibody 5 ug/mL, CD3 FITC-A against APC-A (Example 3.3); other quadrants printed: Q2-UL 16.97 %, Q2-LL 27.93 %, Q2-LR 8.25 %
[4] = target: CD27-mFc (Kangdai) (human) (UniProt P26842); assay: competition ELISA: CD70 coated, CD27-mFc plus antibody dilutions; competitor CD70
[5] = target: CD27-mFc (Kangdai) (human) (UniProt P26842); assay: competition ELISA: coated CD70 (1 ug/mL), CD27-mFc fixed at 4.3 ug/mL plus antibody dilution, HRP anti-mouse Fc detection; blocked ligand CD70 (Example 3.5)
[6] = target: human CD27 (transmembrane protein) on the cell membrane (human) (UniProt P26842); assay: flow cytometry on CHO cells expressing human CD27
[7] = target: human CD27 (transmembrane protein) on the cell membrane (human) (UniProt P26842); assay: flow cytometry on human PBMC, antibody 5 ug/mL, CD19 PE-A against APC-A (Example 3.3); other quadrants printed: Q3-UL 15.04 %, Q3-LL 29.25 %, Q3-LR 51.11 %
[8] = target: antigen CD27 (soluble, as used in the BLI and SPR experiments) (UniProt P26842); assay: BLI, antibody captured on AHC probe, CD27 in solution
Chain of antigen CD27 (soluble, as used in the BLI and SPR experiments) (P26842 21-192 limits assumed): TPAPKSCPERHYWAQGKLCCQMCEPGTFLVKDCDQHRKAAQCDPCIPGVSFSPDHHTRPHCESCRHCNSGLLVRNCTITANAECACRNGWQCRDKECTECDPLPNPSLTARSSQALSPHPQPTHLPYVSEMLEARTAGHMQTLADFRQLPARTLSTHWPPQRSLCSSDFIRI

Chain of CD27-mFc (Kangdai) (human) (P26842 21-192 limits assumed): as above
Chain of human CD27 (transmembrane protein) on the cell membrane (human) (P26842 20-260): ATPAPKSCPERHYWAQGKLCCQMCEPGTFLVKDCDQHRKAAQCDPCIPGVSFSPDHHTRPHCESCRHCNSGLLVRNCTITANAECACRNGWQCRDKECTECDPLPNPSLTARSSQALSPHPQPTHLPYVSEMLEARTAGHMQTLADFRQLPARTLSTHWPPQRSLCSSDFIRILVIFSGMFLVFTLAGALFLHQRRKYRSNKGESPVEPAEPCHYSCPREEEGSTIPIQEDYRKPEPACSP

- EC50 [1]: 0.032 µg/mL
- EC50 [2]: 0.0381 µg/mL
- Q2-UR, percent of gated cells that are CD3 FITC+ and APC+ (antibody-stained) [3]: 46.9%
- IC50 [4]: 1.31 µg/mL
- IC50 (read off the curve) [5]: 1 µg/mL
- EC50 [6]: 2.87 µg/mL
- Q3-UR, percent of gated cells that are CD19 PE+ and APC+ (antibody-stained) [7]: 4.6%
- pKd [8]: 9.16
- koff [8]: 8.75e-05 s⁻¹
- kon [8]: 126000 M⁻¹ s⁻¹
Substance: CD27 monoclonal antibody Varlilumab (1F5)
